Source: the DeepSol protein solubility set

Assay: soluble on expression in E. coli; label from the status in PepcDB or PDB records

| Sequence | soluble on expression in E. coli |
| --- | --- |
| MLKTLAVANYRSINKLVIPLGRLNLVTGANGSGKSNLYRALRLLAETAQGGVVNALAKEGGLESTYWAGPEQISRRMSQGEVPIQGGPRKAARRLQLGFAGEDFGYAISLGLPDSSGHFMLPGHSSPIASRFTLDPWIKRESIWGGPLYRSASALVDRQGPMIRARAGRQWEVLAQHTSSGDSLFDRVGNLSSSPEVLHLREQIRGWRFYDHLRTDSQAPARRPQLGTRTPVLHHDGRDLAAALQTIIEVGDQQALHETISDAFPESRLEIDAVPGGLFGVQFYQEGLLRPLSAAELSDGTLRYLLLVAALLTPRPPTLMVLNEPETSLHPDLLPALARLIIRASQQCQVWVVSHARRLIAALQQDPECNCIVLEKQLGQTGIVGQRMLDEPAWNWPDLEHHHHHH | not soluble |
| MELARPRSNFQSDLDFCPDCGSVLPLPGIQDTVICSRCGFSIDVRDCEGKVVKTSVVFNKLGATIPLSVDEGPELQGPVIDRRCPRCGHEGMAYHTRQMRSADEGQTVFYTCINCKFQEKEDS | soluble |
| WPALDDETLLARLELWLEPYLAGVTSVKGLQSVSVLQALKHYLGWELSQQLDEWLPTHHLLPTGNHKKIRYQLGMEPTLSVRMQEVFGEQSSPRVAKGTRAVVMELLSPAQRPLQVTRDLASFWAGAYKEVQKEMKGRYPKHVWPDDP | not soluble |
| MGSDKIHHHHHHACDDDEATDPYDINYVYIYKPSETNATLEYKGDGTFLKEIATEHILSPVRCTKPAPQDLTIQLAIDRSLVDAYNSEYGTSYVALQNAELENATLYIKQGEYISVDTLKVHYTNMEEFKNGSENYILPIAITSINGTGVSASESNSKIFLTFESTYKPNHVTLTSSKEYLLEYQYSQGFTNLSSEWKLDGILKSAWAADGDTKVTLAINPALVGTYNALHGTDYSLLTSASLKQSTIMIKQGKTTPEESVALSFSDDMASVQLGTNYVIPVTITNVDGVGADIGENKVIYIVYKTALVGFLSCVDKPVGSVINDHSGWSFTLNGQSSDLYDYVPDGSILDIDLGKQENIKTIALHFYEWFYSSESASIAISNDGEKYEDLGVASGFANKTSYILLLVAKQAQYIRVTFHGALYYSPYINTVGIYTETE | not soluble |
| MGSDKIHHHHHHMTAPRELTAETRCGSSMDSSPPTATDDINSADIALRVSALSKTYRIYGRSQDRLLQGLWGNRKQLYREFRALDSISFEIRRGETFGIIGPNGSGKSTLLQLIAGTLTPTQGEIYIKGKVSALLELGAGFNGEFTGRENIRMAASIAGLNPGEIGQRHECIAAYADIGDFLDQPVKTYSSGMYVRLAFAVAISVEPEVLIIDEALAVGDMEFQAKCMVTLKQMQERGTTILFVSHDVGAVSALCKRTLYLKHGRALEIGPTPDVVARYIREVQEANNRKINVTVSENNDSRTTSPSDASETGIAPSHRTASLTSAEAASGAASGFLTAASPFRSVEKKHLARFAENANHCRSGTGDVRVIYAEMTDDEGLPVRSAEFGQSVLIRIIVEAARTCTFSVNYKICDKNRTPVIGADFLMQRQALLTLEPSQQAEALYRTSLPLTDGRYSLRISLTHPVNAHQQALFFDIVEIAHVFEVLPNPTAKFWTQVYLPNTLDVRVLE | not soluble |
| MGHHHHHHSHMEKSEPVDQRRHTAGKAIVDSRSAQPKETSEERKARLSEWKAGKGRVLKRPPNSVVTQHEPAGQNEKPVGSFWTTMAEEDEQRLFTEKVNNTFSECLNLINEGCPKEDILVTLNDLIKNIPDAKKLVKYWICLALIEPITSPIENIIAIYEKAILAGAQPIEEMRHTIVDILTMKSQEKANLGENMEKSCASKEEVQEVSIEDTGVDVDPEKLEMESKLHRNLLFQDCEKEQDNKTKDPTHDVKTPNTETRTSCLIKYNVSTTPYLQSVKKKVQFDGTNSAFKELKFLTPVRRSRRLQEKTSKLPDMLRDHYPCVSSLEQLTELGRETDAFVCRPNAALCRVYYEADTT | not soluble |
| MSLTKDDQKELGKTLWAIADQLRGSMNADDFRDYMLSFLFLRYLSDNYEAAAKKELGSDYPDAKTIGNSDKTPLSVWYASNPGDVAAFEQQMRRKAHYVIKPKYLWGNIVNLAKKQNHDLLDTLQQGFKHIEEDSFESEFQGLFSEINLASDKLGRKYDDRNAKLCSIISEIARGMALSAKTDSLGDAYEYLIGQFAAGSGKKAGEFYTPQEISNILSAIVTLDSQEPKTGPRGKLDSVFDFACGSGSLLLNIRNRMTNSGGSIGKIYGQEYNVTTYNLARMNMLLHGVKDTEFEIYHGDTLKNDWDWLRETNPAKKPRFDAVVANPPFSYRWEPGEAMAQDARFKNHGVAPKSAADFAFLLHGLQYLKDDGVMAIILPHGVLFRGGKEADIRRKLLDDGHIDTVIGLPANLFYSTGIPVCILVLKKCKKPDDVLFINAAGHFAKGKRQNQLTDEHIQRIVNTYQNRNKQDRYSRCVSMKEIADKDYNLNISRYVSTAEADKEIVLEAVHADLTAIESRLEESKKRHNAFLVELGLKPLPEGHHHHHH | soluble |
| MVKAEFGLYSATGGRVLVWLEQIHVQPLELLSTDERIRRQSIGVTILWNNILVMIQCDGNILPQKHQGFYRFHCEFQQRSLHTAEHLMSFMDEGS | not soluble |
| MTQPSAPAPQIAIDSHDDKAWRDTLLKVAAILCERQPDSPQGYRLRRHALWQSITSTPQAESDGRTPLAAVSADMVADYQSRLASADMALWQQVEKSVLLAPYWLDGHCLSAQTALRLGYKQVADTIRDEVIRFLERLPQLTGLLFNDRTPFLSEQTKQWLAASPDGKVAPVAQIGEESQAARACFAGQGLEAALRYLDMLPEGDPRDQFHRQYLAAQLTEEAGLIQLAQQQYRMLLMIGSQMMVSDWEPSLLTQLEQKFTAEQ | soluble |
| MSSKHEILNALKLSALTNHPMPSIDVAPRVEDLVGQFETNLKTVAGTLHREGGLAALQAKVDELIAQGLQVISLVEGVTANRDVPPTAHELRDIDYAVIPGDVGVAENGAIWVNNKNLGHRVTPFICENLILALPIHKIVPNMHQAAKEVTLDAGEFGVFIAGPSKTADIEQALVVGAHGACSLNVYLV | soluble |
| MKVVAFNGSPRKEGNTASLIKHVLAELDKEGIETEIVQIGGKSVHGCTACSKCFENRDRRCVIDNDIVNECIEKMLEADGIILASPTYFADLTPELKALIDRAGFVAKANSEMFRYKVGAAVVAVRRAGSIHVFDSINHFFTISQMIIPGSSYWNMGIGRAEGDVEKDDEGIRTMQILGQNMAWLLKKLNELEHHHHHH | not soluble |
| MAHHHHHHMATPKQKETICEAAIVGFSFNKDRTEAVFSPNNHLLYIVSCKDIKDCSTWEIYATLEHHDQSVSATAWHGSTNRILSCSQDRTAFVWQRNAKGKWKPQMVMLDAGVKRGLTSCAWNHSGSKIYVGSAASNIAVGRFDAENEWWICRLLEGHTSTVTALAPHPSDDTLLLSGGTDGRLMLISTFMKKLDGKKSSSFGHVYLEKCFGAWVHAIAWAPSGQRFAVATHDSRVHVFDIPSVDNLSESIDEGLAIYSVSLAILPLKSLAFVLEDHLVGGGFDYFPALFQPSKKGTGWTMSGKWTMTRVKGAKTAQQIAREKFQNEARIGQAELLEEEQTRHKNTINGVLTLIDDGAAFKSAMEGPVFATASLDGRVEVWTIRDMIPII | not soluble |
| MSLSEAGHKFLAKLGKKRLRPGGKRATDWLIAEGGFSKEKRILEVACNRGTTAIELAQRFGCKITAVDMDAQALEVAKKSAGTAGVAHLISFERANAMKLPYQDASFDIVINEAMLTMQADQAKKKCVMEYLRVLKPGGLLLTHDVLLKEAKESIRQELSQAIHVNVGPLTQDGWEQVMIESGYCDVKALTGEMTLMKLSGMIYDEGLLGTLKICVNACKKENRKQFLTMYKMFAKNKQKLGFIAMASYKSSEGHHHHHH | soluble |
| MGSDKIHHHHHHMTKLRIAVQGCCHGQLNQIYKEVSRIHAKTPIDLLIILGDFQSIRDGQDFKSIAIPPKYQRLGDFISYYNNEIEAPVPTIFIGGNHESMRHLMLLPHGGYVAKNIFYMGYSNVIWFKGIRIGSLSGIWKEWDFNKQRPDWNDLENNNWKANIRNLYHVRISDIAPLFMIKHRIDIMLSHDWPNGVVYHGDTKHLLKLKPFFEQDIKEGKLGSPVTWQLLRDLRPQWWLSAHLHVRFMASIKHNKRSHEPPNKSTSKTKKNNNEIDLDLSSDEDERSGIMNCQEENEYDSKYGETRFLALDKCLPRRRWLEILEIEPDTSHASWKDENHRMFWDPEFINNLVICQKNKNLLSNKPFNSVNWIELSQSNREEGRDIDWENYAIPAYTLDIQKDEVRQTKAFISKFMT | not soluble |
| MKPKAMIRTMAIMKTADILKAMDITEELAKRMGFLPRDCLFLRLATEEACTNAYEYCQKTRKLPFRIFWKMEARQFMIIVKQRGGCFSVAQTDVVNTGPRGRGLQLITHIVDDVYVKQAGNNVLFCMCKCKK | not soluble |
| MSLDRPRCCLRGKECSINRFQQVESRWGYSGTSDRIRFSVNKRIFVVGFGLYGSIHGPTDYQVNIQIIHTDSNTVLGQNDTGFSCDGSASTFRVMFKEPVEVLPNVNYTACATLKGPDSHYGTKGMRKVTHESPTTGAKTCFTFCYAAGNNNGTSVEDGQIPEVIFYTEGHHHHHH | soluble |
| MAHHHHHHMKRGNEVAREMWAPSTWEQRMSLAGQFTTFCRTHEQPINEESRAALLVAILDVAPPTRPQHARMLRSMLEMNRTPLGMAILGLQKLAARSETRQARSLTKEGMDQFIRSRIDWNQRVVFRLACMTASRWSGIAALTPNNATLEADGTIILDWSVAPKTARADPHRAPRFVGIRGRDALDTITLCRTLQENEKLTNVTNAKVERALAPWDATAHSIKRGALRHAAQIVETCNLDPHVISQLAKHVDPFVLPQNTVRYFWKYTTVLTQVLPLVVLM | not soluble |
| MIVTKDYSKESRVNENSKYGTLISDWYLKGRLTSLESQFINALDILETYHYGEKEYKDAKDKLMTRILGEDQYLLERKKVQYEEYKKLYQKYKEENPTSKLKLKTFDQYTIEDLTMREYNELTESLKSAVKDFEKDVEKIENQHHDLKPFTDEMEEKATSRVDDLANKAYSVYFAFVRDTQHKTEALELKAKVDLVLGDEDKPHRISNERIEKEMIKDLESIIEDFFIETGLNKPGNITSYDSSKHHYKNHSEGFEALVKETREAVANADESWKTKTVKKYGESETKSPVVKEENKVEDPQSPKFDNQQEVKTTAGKAEETTQPVAQPL | soluble |
| MGSDKIHHHHHHMKYLLLIPDGMADWEVEELDGRTPLEVAETENMDFLAKEGACGIAKTVPDGFEPGSDVANLTILGVDVRKHYTGRGPIEALARGVKGKLVFRCNLVKVEDGVMVDYSGGRISDEEARKVIEELNRAKPYDFVKFYAGKSYRNLLVINKDFRDDVKTFPPHDITGKEIDKHLPSGGELAELLKELMGWSAEILPEITDKANMIWPWGGGRMPSFPNFGQRYGLRGAMITEVDLLEGIARGMGMEVVQVEGITGYIDTNYRGLVRETARALEEHDFVVLHTEGIDEVGHEGDAELKVRAIELYDSKIVGKLLNKVDLDETRILLLPDHPTPVKVKTHVAEPVPFTLYGRGRDEVKVYTEKSCRRGKFGLVDGLRLMDLLIKK | not soluble |
| MGSDKIHHHHHHMTSFNSNELQKLYIAFFGRPCDPAGMNYWLSKSEDKANLIDVAKAFSSQEEYKKSLTSVNSIEFQINQIYLNLFARKADFDSLNTWSLKCKRGELKIYELASMLTIEQSNIEEKIDNISLKDVEVLEKKVQAAQLFTDQISKDICWINAYKPDSIDPWILGKALQVGINYLNKVDSSYHLDKYAVTEILHKMSFEKINTSTKAIIKIRNLSLTIPISFKHDQKLSNLLTKGVLNSIIGGQLVKNKTTTKIEALRNINLTIMNGERVALIGHNGSGKTSFLKVISGIYLPTEGDLDVEVDVYPMLQKSFLTSTDLTGVDAAKAHYLLVNKSLNGFDQFLQDIIEFSGLGEFISLPIKTYSEGMSARLIFSILTSIPHDCLAIDEGFGTGDSDFFERAEKRMKSFMNSSGTLILASHSEHLLKQFCTRGIVFNHGQVVYDGSLDASLNYYHTHDYIHSNDN | not soluble |
